According to patent US20240392004A1 (IMMUNOWAKE, published 2024):
Positions count from the first letter of the chain named. Names may count otherwise.

T1: human IL-2 receptor (IL-2Rα, IL-2Rβ, IL-2Rγ) (human, UniProt P01589 22-272; P14784 27-551; P31785 23-369)
T1 sequence (looked up) 1: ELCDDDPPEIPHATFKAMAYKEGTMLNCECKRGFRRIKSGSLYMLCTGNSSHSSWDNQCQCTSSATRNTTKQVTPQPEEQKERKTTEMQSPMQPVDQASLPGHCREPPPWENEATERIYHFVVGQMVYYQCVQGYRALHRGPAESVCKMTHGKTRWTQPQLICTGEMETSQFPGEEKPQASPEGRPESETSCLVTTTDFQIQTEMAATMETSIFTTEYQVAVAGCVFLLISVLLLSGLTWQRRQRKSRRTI
T1 sequence (looked up) 2: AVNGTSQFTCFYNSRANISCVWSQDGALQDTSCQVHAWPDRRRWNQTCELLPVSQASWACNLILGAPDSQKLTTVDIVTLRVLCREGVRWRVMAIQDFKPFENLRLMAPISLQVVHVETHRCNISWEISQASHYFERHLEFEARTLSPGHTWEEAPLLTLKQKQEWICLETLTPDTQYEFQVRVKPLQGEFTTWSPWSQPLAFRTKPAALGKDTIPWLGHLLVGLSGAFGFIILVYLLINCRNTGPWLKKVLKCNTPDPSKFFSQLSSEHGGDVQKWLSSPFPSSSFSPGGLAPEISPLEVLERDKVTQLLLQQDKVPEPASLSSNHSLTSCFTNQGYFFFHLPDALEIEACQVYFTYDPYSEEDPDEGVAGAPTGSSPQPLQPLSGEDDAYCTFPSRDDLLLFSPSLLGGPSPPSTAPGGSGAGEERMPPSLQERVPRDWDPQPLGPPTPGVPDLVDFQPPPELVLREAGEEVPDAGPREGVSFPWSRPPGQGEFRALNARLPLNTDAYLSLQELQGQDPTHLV
T1 sequence (looked up) 3: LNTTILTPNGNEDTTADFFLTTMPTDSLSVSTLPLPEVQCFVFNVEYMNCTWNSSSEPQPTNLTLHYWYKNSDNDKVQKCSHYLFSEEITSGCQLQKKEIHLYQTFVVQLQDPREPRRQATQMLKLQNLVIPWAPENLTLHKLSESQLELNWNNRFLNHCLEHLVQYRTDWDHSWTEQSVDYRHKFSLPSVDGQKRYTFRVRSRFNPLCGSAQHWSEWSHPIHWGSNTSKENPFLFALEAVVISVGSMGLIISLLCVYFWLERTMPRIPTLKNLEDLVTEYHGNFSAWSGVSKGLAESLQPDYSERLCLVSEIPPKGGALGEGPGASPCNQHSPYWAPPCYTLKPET

B1: IL-2(L18R/Q22E/R38D/K43E/E61R/Q126T/S130R)/PD-L1(mut2)-Fc (Fc fusion)
chain 1: FTVTVPKDLYVVEYGSNMTIECKFPVEKQLDLAALQVYWMMEDKNIIQFVHGEEDLKVQHSSYRQRARLLKDQLSLGNAALQITDVKLQDAGVYTCLIAYKGADYKRITVKVNAPYNKINQRILVVDPVTSEHELTCQAEGYPKAEVIWTSSDHQVLSGKTTTTNSKREEKLFNVTSTLRINTTTNEIFYCTFRRLDPEENHTAELVIPELPLAHPPNERGGGGSGGGDKTHTCPPCPAPEDEGGPSVFLFPPKPKDTLMISRTPEVTCVVVDVSHEDPEVKFNWYVDGVEVHNAKTKPREEQYNSTYRVVSVLTVLHQDWLNGKEYKCKVSNKALPAPIEKTISKAKGQPREPQVYVYPPSREEMTKNQVSLTCLVKGFYPSDIAVEWESNGQPENNYKTTPPVLDEDGSFALVSKLTVDKSRWQQGNVFSCSVMHEALHNHYTQKSLSLSPGK
chain 2: FTVTVPKDLYVVEYGSNMTIECKFPVEKQLDLAALQVYWMMEDKNIIQFVHGEEDLKVQHSSYRQRARLLKDQLSLGNAALQITDVKLQDAGVYTCLIAYKGADYKRITVKVNAPYNKINQRILVVDPVTSEHELTCQAEGYPKAEVIWTSSDHQVLSGKTTTTNSKREEKLFNVTSTLRINTTTNEIFYCTFRRLDPEENHTAELVIPELPLAHPPNERGGGSGAPTSSSTKKTQLQLEHLRLDLEMILNGINNYKNPKLTDMLTFEFYMPKKATELKHLQCLERELKPLEEVLNLAQSKNFHLRPRDLISNINVIVLELKGSETTFMCEYADETATIVEFLNRWITFCTSIIRTLTGGGGSGGGDKTHTCPPCPAPEKKGGPSVFLFPPKPKDTLMISRTPEVTCVVVDVSHEDPEVKFNWYVDGVEVHNAKTKPREEQYNSTYRVVSVLTVLHQDWLNGKEYKCKVSNKALPAPIEKTISKAKGQPREPQVYVLPPSREEMTKNQVSLLCLVKGFYPSDIAVEWESNGQPENRYMTWPPVLDSDGSFFLYSKLTVDKSRWQQGNVFSCSVMHEALHNHYTQKSLSLSPGK
B2: PD-L1(mut2)-Fc/IL-12(E59A/F60A) (IL-12 at C' of Fc) (Fc fusion)
chain 1: FTVTVPKDLYVVEYGSNMTIECKFPVEKQLDLAALQVYWMMEDKNIIQFVHGEEDLKVQHSSYRQRARLLKDQLSLGNAALQITDVKLQDAGVYTCLIAYKGADYKRITVKVNAPYNKINQRILVVDPVTSEHELTCQAEGYPKAEVIWTSSDHQVLSGKTTTTNSKREEKLFNVTSTLRINTTTNEIFYCTFRRLDPEENHTAELVIPELPLAHPPNERGGGGSGGGDKTHTCPPCPAPEDEGGPSVFLFPPKPKDTLMISRTPEVTCVVVDVSHEDPEVKFNWYVDGVEVHNAKTKPREEQYNSTYRVVSVLTVLHQDWLNGKEYKCKVSNKALPAPIEKTISKAKGQPREPQVYVYPPSREEMTKNQVSLTCLVKGFYPSDIAVEWESNGQPENNYKTTPPVLDEDGSFALVSKLTVDKSRWQQGNVFSCSVMHEALHNHYTQKSLSLSPGKGGGGSGGGIWELKKDVYVVELDWYPDAPGEMVVLTCDTPEEDGITWTLDQSSEVLGSGKTLTIQVKAAGDAGQYTCHKGGEVLSHSLLLLHKKEDGIWSTDILKDQKEPKNKTFLRCEAKNYSGRFTCWWLTTISTDLTFSVKSSRGSSDPQGVTCGAATLSAERVRGDNKEYEYSVECQEDSACPAAEESLPIEVMVDAVHKLKYENYTSSFFIRDIIKPDPPKNLQLKPLKNSRQVEVSWEYPDTWSTPHSYFSLTFCVQVQGKSKREKKDRVFTDKTSATVICRKNASISVRAQDRYYSSSWSEWASVPCSGGGGSGGGSGGGGSRNLPVATPDPGMFPCLHHSQNLLRAVSNMLQKARQTLEFYPCTSEEIDHEDITKDKTSTVEACLPLELTKNESCLNSRETSFITNGSCLASRKTSFMMALCLSSIYEDLKMYQVEFKTMNAKLLMDPKRQIFLDQNMLAVIDELMQALNFNSETVPQKSSLEEPDFYKTKIKLCILLHAFRIRAVTIDRVMSYLNAS
chain 2: B1 chain 1 with D242K, E243K, Y359L, T374L, N398R, K400M, T402W, E408S, A413F, V415Y
B3: IL-2(R38D/K43E/E61R/Q126T)/IL-12(E59A/F60A)/PD-L1(mut2)-Fc (Fc fusion)
chain 1: FTVTVPKDLYVVEYGSNMTIECKFPVEKQLDLAALQVYWMMEDKNIIQFVHGEEDLKVQHSSYRQRARLLKDQLSLGNAALQITDVKLQDAGVYTCLIAYKGADYKRITVKVNAPYNKINQRILVVDPVTSEHELTCQAEGYPKAEVIWTSSDHQVLSGKTTTTNSKREEKLFNVTSTLRINTTTNEIFYCTFRRLDPEENHTAELVIPELPLAHPPNERGGGGSGGGIWELKKDVYVVELDWYPDAPGEMVVLTCDTPEEDGITWTLDQSSEVLGSGKTLTIQVKAAGDAGQYTCHKGGEVLSHSLLLLHKKEDGIWSTDILKDQKEPKNKTFLRCEAKNYSGRFTCWWLTTISTDLTFSVKSSRGSSDPQGVTCGAATLSAERVRGDNKEYEYSVECQEDSACPAAEESLPIEVMVDAVHKLKYENYTSSFFIRDIIKPDPPKNLQLKPLKNSRQVEVSWEYPDTWSTPHSYFSLTFCVQVQGKSKREKKDRVFTDKTSATVICRKNASISVRAQDRYYSSSWSEWASVPCSGGGGSGGGSGGGGSRNLPVATPDPGMFPCLHHSQNLLRAVSNMLQKARQTLEFYPCTSEEIDHEDITKDKTSTVEACLPLELTKNESCLNSRETSFITNGSCLASRKTSFMMALCLSSIYEDLKMYQVEFKTMNAKLLMDPKRQIFLDQNMLAVIDELMQALNFNSETVPQKSSLEEPDFYKTKIKLCILLHAFRIRAVTIDRVMSYLNASGGGGSGGGDKTHTCPPCPAPEDEGGPSVFLFPPKPKDTLMISRTPEVTCVVVDVSHEDPEVKFNWYVDGVEVHNAKTKPREEQYNSTYRVVSVLTVLHQDWLNGKEYKCKVSNKALPAPIEKTISKAKGQPREPQVYVYPPSREEMTKNQVSLTCLVKGFYPSDIAVEWESNGQPENNYKTTPPVLDEDGSFALVSKLTVDKSRWQQGNVFSCSVMHEALHNHYTQKSLSLSPGK
chain 2: B1 chain 2 with R243L, E247Q, R355S
B4: IL-2(R38D/K43E/E61R/Q126T)/PD-L1(mut2)-Fc/IL-12(E59A/F60A) (Fc fusion)
chain 1: B2 chain 1
chain 2: B1 chain 2 with R243L, E247Q, R355S
B5: IL-2(L18R/Q22E/R38D/K43E/E61R)/IL-12(E59A/F60A)/PD-L1(mut2)-Fc (Fc fusion)
chain 1: B3 chain 1
chain 2: B1 chain 2 with T351Q, R355S
B6: IL-2(L18R/Q22E/R38D/K43E/E61R)/PD-L1(mut2)-Fc/IL-12(E59A/F60A) (Fc fusion)
chain 1: B2 chain 1
chain 2: B1 chain 2 with T351Q, R355S

These binders were tested against T1, human IL-2 receptor (IL-2Rα, IL-2Rβ, …) (assay: cell-based or functional assay).

| IL-2 signal transduction, HEK-IL-2 [%] | Binder |
| --- | --- |
| < 0.1 | B1 |

Each binder was assayed against T2, human PD-1 on cells (HEK-PD-1 reporter cells; activated PBMC) (human, UniProt Q15116 25-288) (assay: cell-based or functional assay).
T2 sequence (Q15116 25-288): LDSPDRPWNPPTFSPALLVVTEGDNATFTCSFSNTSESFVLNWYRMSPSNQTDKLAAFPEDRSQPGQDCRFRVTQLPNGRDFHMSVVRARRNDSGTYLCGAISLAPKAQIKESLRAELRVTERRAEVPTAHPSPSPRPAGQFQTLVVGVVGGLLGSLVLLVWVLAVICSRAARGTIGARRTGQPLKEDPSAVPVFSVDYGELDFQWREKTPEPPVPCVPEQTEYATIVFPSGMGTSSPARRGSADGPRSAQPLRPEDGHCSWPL

| IL-2 signal transduction, HEK-IL-2-PD-1 [%] | Binder |
| --- | --- |
| < 0.1 | B1 |

Each binder was assayed against human IL-12 receptor complex (IL-12Rβ1 and IL-12Rβ2) (human, UniProt P42701 24-662; Q99665 24-862) (assay: cell-based or functional assay).
Chain of human IL-12 receptor complex (IL-12Rβ1 and IL-12Rβ2) (Q99665 24-862, chain 2 of 2, other chains not shown): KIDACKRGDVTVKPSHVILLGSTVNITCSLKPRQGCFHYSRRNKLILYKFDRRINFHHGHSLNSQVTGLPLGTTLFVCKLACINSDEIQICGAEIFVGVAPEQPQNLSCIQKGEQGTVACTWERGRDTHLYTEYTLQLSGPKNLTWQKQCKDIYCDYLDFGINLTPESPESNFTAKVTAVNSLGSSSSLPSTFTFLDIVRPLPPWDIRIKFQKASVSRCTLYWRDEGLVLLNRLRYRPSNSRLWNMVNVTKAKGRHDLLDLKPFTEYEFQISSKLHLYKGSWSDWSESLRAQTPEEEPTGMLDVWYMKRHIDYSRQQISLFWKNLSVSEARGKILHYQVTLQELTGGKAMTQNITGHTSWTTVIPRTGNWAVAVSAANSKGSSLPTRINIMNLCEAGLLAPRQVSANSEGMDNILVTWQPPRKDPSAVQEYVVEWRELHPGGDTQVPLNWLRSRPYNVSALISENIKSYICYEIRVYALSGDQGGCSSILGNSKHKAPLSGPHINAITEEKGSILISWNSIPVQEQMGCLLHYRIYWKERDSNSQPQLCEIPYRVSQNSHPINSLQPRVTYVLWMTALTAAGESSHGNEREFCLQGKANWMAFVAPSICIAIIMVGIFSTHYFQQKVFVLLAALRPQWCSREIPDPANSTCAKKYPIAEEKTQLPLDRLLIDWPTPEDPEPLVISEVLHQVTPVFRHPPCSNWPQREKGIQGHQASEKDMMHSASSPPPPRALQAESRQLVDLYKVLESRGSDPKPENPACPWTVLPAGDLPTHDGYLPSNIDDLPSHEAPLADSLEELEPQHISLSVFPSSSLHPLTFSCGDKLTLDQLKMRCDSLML

| IL-12 signal transduction, HEK-IL-12 [%] | Binder |
| --- | --- |
| 1 | B2 |
| < 0.2 | B3 |
| 1 | B4 |
| < 0.2 | B5 |
| 2 | B6 |

Molecular target: T1, human IL-2 receptor (IL-2Rα, IL-2Rβ, …)
Test: cell-based or functional assay
Remark: another data set of the same source

| IL-2 signal transduction, HEK-IL-2 [%] | Binder |
| --- | --- |
| < 0.1 | B2 |
| 2 | B3 |
| 3 | B4 |
| 4 | B5 |
| 3 | B6 |

Molecular target: T2, human PD-1 on cells (HEK-PD-1 reporter …)
Test: cell-based or functional assay
Remark: another data set of the same source

| IL-2 signal transduction, HEK-IL-2-PD-1 [%] | IL-12 signal transduction, HEK-IL-12-PD-1 [%] | Binder |
| --- | --- | --- |
| < 0.1 | 25 | B2 |
| 20 | 25 | B3 |
| 31 | 30 | B4 |
| 35 | 19 | B5 |
| 32 | 27 | B6 |
